{
  "source": "paper doi:10.1101/716332",
  "target": "PA28γ (endogenous, U2OS cells) (human (endogenous in U2OS)) (UniProt P61289)",
  "sequence (P61289 whole entry)": "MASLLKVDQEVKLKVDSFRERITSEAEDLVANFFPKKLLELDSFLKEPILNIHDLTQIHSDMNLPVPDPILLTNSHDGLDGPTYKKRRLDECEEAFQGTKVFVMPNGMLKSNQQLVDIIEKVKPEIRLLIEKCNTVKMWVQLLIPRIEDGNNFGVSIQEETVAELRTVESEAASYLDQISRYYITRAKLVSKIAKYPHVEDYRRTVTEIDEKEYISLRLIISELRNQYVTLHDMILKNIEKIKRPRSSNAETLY",
  "test": "proximity ligation",
  "data": [
    {"substance": "20S proteasome (endogenous, U2OS cells), detected by its α4 subunit (from UniProt O14818 1-248) (complex)", "values": [
      {"measurement": "PLA dots per nucleus (PLA dots per nucleus)", "value": "< 60"}
    ]}
  ]
}
